Laboratory results from patent publication US20070093443.

T1: Complement C2 (human)
T1 chain: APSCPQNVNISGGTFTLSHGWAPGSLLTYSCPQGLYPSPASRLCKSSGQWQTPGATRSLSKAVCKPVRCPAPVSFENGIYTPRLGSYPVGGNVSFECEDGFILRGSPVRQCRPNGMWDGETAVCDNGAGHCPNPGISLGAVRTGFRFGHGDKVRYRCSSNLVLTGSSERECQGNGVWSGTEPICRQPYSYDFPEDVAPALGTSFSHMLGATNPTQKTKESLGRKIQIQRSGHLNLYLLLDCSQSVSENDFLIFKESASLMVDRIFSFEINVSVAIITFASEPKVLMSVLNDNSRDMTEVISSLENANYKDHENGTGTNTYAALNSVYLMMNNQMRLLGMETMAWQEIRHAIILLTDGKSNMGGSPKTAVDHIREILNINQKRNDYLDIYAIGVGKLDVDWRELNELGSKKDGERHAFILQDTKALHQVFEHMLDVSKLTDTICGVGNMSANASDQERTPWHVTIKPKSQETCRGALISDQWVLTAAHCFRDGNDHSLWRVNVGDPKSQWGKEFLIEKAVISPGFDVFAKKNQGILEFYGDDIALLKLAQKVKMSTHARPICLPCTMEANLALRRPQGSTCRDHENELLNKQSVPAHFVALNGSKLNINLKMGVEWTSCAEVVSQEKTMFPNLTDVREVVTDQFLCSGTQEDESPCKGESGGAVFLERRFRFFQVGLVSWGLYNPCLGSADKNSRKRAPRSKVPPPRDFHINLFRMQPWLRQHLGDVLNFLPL

T2: rat complement C2 (in plasma of treated rats), Q8CIP8
T2 chain: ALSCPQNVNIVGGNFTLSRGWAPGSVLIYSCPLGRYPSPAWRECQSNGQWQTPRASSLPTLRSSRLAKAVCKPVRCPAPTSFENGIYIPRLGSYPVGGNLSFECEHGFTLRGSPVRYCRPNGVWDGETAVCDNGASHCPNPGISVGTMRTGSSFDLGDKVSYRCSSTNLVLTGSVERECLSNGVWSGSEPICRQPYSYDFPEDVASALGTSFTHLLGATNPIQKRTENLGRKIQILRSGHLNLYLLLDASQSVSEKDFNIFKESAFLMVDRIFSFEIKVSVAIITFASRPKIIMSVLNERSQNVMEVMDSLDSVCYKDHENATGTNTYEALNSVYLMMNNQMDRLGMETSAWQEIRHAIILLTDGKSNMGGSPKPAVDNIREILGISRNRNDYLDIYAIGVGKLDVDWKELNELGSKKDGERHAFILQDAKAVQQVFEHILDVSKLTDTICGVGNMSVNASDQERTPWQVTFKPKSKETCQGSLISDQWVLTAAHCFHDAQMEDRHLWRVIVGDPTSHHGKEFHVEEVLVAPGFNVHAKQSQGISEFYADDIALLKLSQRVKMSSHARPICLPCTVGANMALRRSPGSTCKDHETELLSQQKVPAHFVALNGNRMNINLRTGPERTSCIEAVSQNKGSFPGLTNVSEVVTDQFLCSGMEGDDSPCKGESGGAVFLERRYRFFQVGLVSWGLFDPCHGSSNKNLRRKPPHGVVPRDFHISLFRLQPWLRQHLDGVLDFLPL


Experiments:
Complement C2 (human) = target: T1, Complement C2 (human)
[1] = target: Complement component C6 (human)
[2] = target: T2, rat complement C2 (in plasma of treated …)

Complement component C6 (human), sequence (chain, as listed by the source): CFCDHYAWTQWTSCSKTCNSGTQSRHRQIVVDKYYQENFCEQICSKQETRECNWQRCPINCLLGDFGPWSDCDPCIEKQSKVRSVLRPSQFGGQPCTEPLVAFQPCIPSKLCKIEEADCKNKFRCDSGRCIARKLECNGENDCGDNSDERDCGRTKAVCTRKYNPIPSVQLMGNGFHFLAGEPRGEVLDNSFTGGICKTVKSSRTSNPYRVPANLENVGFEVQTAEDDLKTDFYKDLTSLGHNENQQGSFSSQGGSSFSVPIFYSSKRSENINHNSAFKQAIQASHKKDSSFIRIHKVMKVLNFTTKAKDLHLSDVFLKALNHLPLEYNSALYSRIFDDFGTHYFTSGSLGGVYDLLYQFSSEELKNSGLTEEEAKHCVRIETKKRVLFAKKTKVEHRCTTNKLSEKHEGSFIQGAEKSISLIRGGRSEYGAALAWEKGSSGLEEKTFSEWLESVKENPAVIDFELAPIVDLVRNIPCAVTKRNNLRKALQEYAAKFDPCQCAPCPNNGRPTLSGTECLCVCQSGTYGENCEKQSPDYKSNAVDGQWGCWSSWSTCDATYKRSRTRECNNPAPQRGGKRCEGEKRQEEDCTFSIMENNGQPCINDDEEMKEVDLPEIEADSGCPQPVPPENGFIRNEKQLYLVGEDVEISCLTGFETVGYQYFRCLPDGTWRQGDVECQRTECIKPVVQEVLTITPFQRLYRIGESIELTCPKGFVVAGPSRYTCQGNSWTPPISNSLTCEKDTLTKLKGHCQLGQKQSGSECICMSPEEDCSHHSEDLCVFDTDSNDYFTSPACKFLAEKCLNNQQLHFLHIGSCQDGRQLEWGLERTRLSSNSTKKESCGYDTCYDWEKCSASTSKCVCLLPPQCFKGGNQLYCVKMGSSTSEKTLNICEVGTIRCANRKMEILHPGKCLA

Protein | cleavage in 90% human plasma by Western blot (Complement C2 (human)) | cleavage of purified C2 by 100 nM protease, SDS-PAGE and Coomassie (Complement C2 (human)) | fraction C5b-9 generated, Total Complement System Screen (classical and MBL pathways), 1 uM protease in human plasma (Complement C2 (human)) | hemolysis (OD415) by protease-preincubated purified complement protein added back to the corresponding depleted sera (Complement C2 (human)) | hemolysis (OD415) by protease-preincubated purified complement protein added back to the corresponding depleted sera [1] | C2 Western blot of plasma from rats dosed IV with the protease [2] | hemolysis (OD415) by protease-preincubated purified complement protein added back to the corresponding depleted sera (Complement C1q (human))
modified MT-SP1 CB252 (Y146E/K224N) protease domain (protein) VVGGTDADEGEWPWQVSLHALGQGHICGASLISPNWLVSAAHCYIDDRGFRYSDPTQWTAFLGLHDQSQRSAPGVQERRLKRIISHPFFNDFTFDYDIALLELEKPAEYSSMVRPICLPDASHVFPAGKAIWVTGWGHTQEGGTGALILQKGEIRVINQTTCENLLPQQITPRMMCVGFLSGGVDSCQGDSGGPLSSVEADGRIFQAGVVSWGDGCAQRNNPGVYTRLPLFRDWIKENTGV | cleaved C2 in human plasma in a dose-dependent manner | C2 was almost completely degraded to yield cleavage products of about 70 kD and 23 kD corresponding to C2a and C2b, respectively | the fraction C5b-9 generated upon complement activation induced by the classical and MBL pathways was almost completely inhibited | resulted in an inhibition of hemolysis as assessed by a reduced OD415 absorbance to levels comparable to the depleted sera control | showed no decreased hemolysis as compared to normal sera or the no protease control | CB252 showed a greater cleavage of C2 as there was little detectable C2 present in the plasma samples as assessed by Western Blot even after only 5 minutes following injection, with no detectable C2 present at 60 or 120 minutes after injection | showed no decreased hemolysis as compared to normal sera or the no protease control
modified MT-SP1 CB377 (Y146E/Q175D/K224N) protease domain (protein) VVGGTDADEGEWPWQVSLHALGQGHICGASLISPNWLVSAAHCYIDDRGFRYSDPTQWTAFLGLHDQSQRSAPGVQERRLKRIISHPFFNDFTFDYDIALLELEKPAEYSSMVRPICLPDASHVFPAGKAIWVTGWGHTQEGGTGALILQKGEIRVINQTTCENLLPQDITPRMMCVGFLSGGVDSCQGDSGGPLSSVEADGRIFQAGVVSWGDGCAQRNNPGVYTRLPLFRDWIKENTGV | cleaved C2 in human plasma in a dose-dependent manner | C2 was almost completely degraded to yield cleavage products of about 70 kD and 23 kD corresponding to C2a and C2b, respectively | the fraction C5b-9 generated upon complement activation induced by the classical and MBL pathways was almost completely inhibited | resulted in an inhibition of hemolysis as assessed by a reduced OD415 absorbance to levels comparable to the depleted sera control | showed no decreased hemolysis as compared to normal sera or the no protease control | CB377 also showed diminished C2 levels as compared to vehicle control at early time points, however, by 60 minutes and 120 minutes the levels of C2 were comparable to those from vehicle control samples | showed no decreased hemolysis as compared to normal sera or the no protease control
